Measured values reported in the supplement of paper PMC11246515.
± gives the standard deviation of the averaged measurements.

Experiment: total protein half-life in vivo (active degradation + dilution); higher = more stable protein
[1] = E. coli NCM3722 delta-clpP delta-lon delta-hslV, growth: N-lim chemostat, doubling time 6 h
[2] = E. coli NCM3722 delta-clpP, growth: N-lim chemostat, doubling time 6 h
[3] = E. coli NCM3722 delta-hslV, growth: N-lim chemostat, doubling time 6 h
[4] = E. coli NCM3722 delta-lon, growth: N-lim chemostat, doubling time 6 h
[5] = E. coli NCM3722 delta-smpB, growth: N-lim chemostat, doubling time 6 h
[6] = wild type E. coli NCM3722, growth: C-lim chemostat, doubling time 3 h
[7] = wild type E. coli NCM3722, growth: C-lim chemostat, doubling time 12 h
[8] = wild type E. coli NCM3722, growth: N-lim chemostat, doubling time 6 h
[9] = wild type E. coli NCM3722, growth: N-lim chemostat, doubling time 12 h
[10] = wild type E. coli NCM3722, growth: P-lim chemostat, doubling time 6 h
[11] = wild type E. coli NCM3722, growth: P-lim chemostat, doubling time 12 h
[12] = wild type E. coli NCM3722, growth: C-lim chemostat, doubling time 6 h

Sequence | total protein half-life in vivo [1] [h] | total protein half-life in vivo [2] [h] | total protein half-life in vivo [3] [h] | total protein half-life in vivo [4] [h] | total protein half-life in vivo [5] [h] | total protein half-life in vivo [6] [h] | total protein half-life in vivo [7] [h] | total protein half-life in vivo [8] [h] | total protein half-life in vivo [9] [h] | total protein half-life in vivo [10] [h] | total protein half-life in vivo [11] [h] | total protein half-life in vivo [12] [h]
MTTETRSLYSQLPAIDRLLRDSSFLSLRDTYGHTRVVELLRQMLDEAREVIRGSQTLPAWCENWAQEVDARLTKEAQSALRPVINLTGTVLHTNLGRALQAEAAVEAVAQAMRSPVTLEYDLDDAGRGHRDRALAQLLCRITGAEDACIVNNNAAAVLLMLAATASGKEVVVSRGELVEIGGAFRIPDVMRQAGCTLHEVGTTNRTHANDYRQAVNENTALLMKVHTSNYSIQGFTKAIDEAELVALGKELDVPVVTDLGSGSLVDLSQYGLPKEPMPQELIAAGVSLVSFSGDKLLGGPQAGIIVGKKEMIARLQSHPLKRALRADKMTLAALEATLRLYLHPEALSEKLPTLRLLTRSAEVIQIQAQRLQAPLAAHYGAEFAVQVMPCLSQIGSGSLPVDRLPSAALTFTPHDGRGSHLESLAARWRELPVPVIGRIYDGRLWLDLRCLEDEQRFLEMLLK [P0A821] | 6.33 ± 0.17 | 6.19 ± 0.19 | 5.62 ± 1 | 5.86 ± 0.47 | 5.49 ± 0.32 | 3.16 ± 0.51 | 11.7 ± 0.94 | 5.64 ± 0.39 | 10.6 ± 1 | 6.06 ± 0.4 | 11.9 ± 1.1 | 
MTTHDRVRLQLQALEALLREHQHWRNDEPQPHQFNSTQPFFMDTMEPLEWLQWVLIPRMHDLLDNKQPLPGAFAVAPYYEMALATDHPQRALILAELEKLDALFADDAS | 5.66 ± 0.27 |  |  |  | 3.91 | 2.09 | 11.8 ± 5.3 | 3.394 ± 0.03 | 6.93 | 3.49 ± 1.9 | 7.56 ± 1.8 | 4.97 ± 0.19
MTTIVDSNLPVARPSWDHSRLESRIVHLGCGAFHRAHQALYTHHLLESTDSDWGICEVNLMPGNDRVLIENLKKQQLLYTVAEKGAESTELKIIGSMKEALHPEIDGCEGILNAMARPQTAIVSLTVTEKGYCADAASGQLDLNNPLIKHDLENPTAPKSAIGYIVEALRLRREKGLKAFTVMSCDNVRENGHVAKVAVLGLAQARDPQLAAWIEENVTFPCTMVDRIVPAATPETLQEIADQLGVYDPCAIACEPFRQWVIEDNFVNGRPDWDKVGAQFVADVVPFEMMKLRMLNGSHSFLAYLGYLGGYETIADTVTNPAYRKAAFALMMQEQAPTLSMPEGTDLNAYATLLIERFSNPSLRHRTWQIAMDGSQKLPQRLLDPVRLHLQNGGSWRHLALGVAGWMRYTQGVDEQGNAIDVVDPMLAEFQKINAQYQGADRVKALLGLSGIFADDLPQNADFVGAVTAAYQQLCERGARECVAAL | 4.94 ± 2.6 | 3.08 ± 0.24 | 3.228 ± 0.01 | 3.47 ± 0.17 | 2.96 ± 0.24 | 2.91 ± 0.27 | 7.28 ± 2.2 | 3.33 ± 0.044 | 6.19 ± 2.3 | 5.28 ± 0.23 | 9.27 ± 0.21 | 4.32 ± 0.52
MTTKKADYIWFNGEMVRWEDAKVHVMSHALHYGTSVFEGIRCYDSHKGPVVFRHREHMQRLHDSAKIYRFPVSQSIDELMEACRDVIRKNNLTSAYIRPLIFVGDVGMGVNPPAGYSTDVIIAAFPWGAYLGAEALEQGIDAMVSSWNRAAPNTIPTAAKAGGNYLSSLLVGSEARRHGYQEGIALDVNGYISEGAGENLFEVKDGVLFTPPFTSSALPGITRDAIIKLAKELGIEVREQVLSRESLYLADEVFMSGTAAEITPVRSVDGIQVGEGRCGPVTKRIQQAFFGLFTGETEDKWGWLDQVNQ [P0AB80] | 4.699 ± 0.033 | 4.25 ± 1.3 | 3.48 ± 0.06 | 4.94 ± 1.1 | 3.75 ± 0.1 | 3.24 ± 0.089 | 10.9 ± 0.13 | 3.49 ± 0.13 | 5.36 ± 0.066 | 5.65 ± 0.27 | 10.9 ± 0.95 | 5.63 ± 0.072
MTTKNMNTPPGSTQENEIDLLRLVGELWDHRKFIISVTALFTLIAVAYSLLSTPIYQADTLVQVEQKQGNAILSGLSDMIPNSSPESAPEIQLLQSRMILGKTIAELNLRDIVEQKYFPIVGRGWARLTKEKPGELAISWMHIPQLNGQDQQLTLTVGENGHYTLEGEEFTVNGMVGQRLEKDGVALTIADIKAKPGTQFVLSQRTELEAINALQETFTVSERSKESGMLELTMTGDDPQLITRILNSIANNYLQQNIARQAAQDSQSLEFLQRQLPEVRSELDQAEEKLNVYRQQRDSVDLNLEAKAVLEQIVNVDNQLNELTFREAEISQLYKKDHPTYRALLEKRQTLEQERKRLNKRVSAMPSTQQEVLRLSRDVEAGRAVYLQLLNRQQELSISKSSAIGNVRIIDPAVTQPQPVKPKKALNVVLGFILGLFISVGAVLARAMLRRGVEAPEQLEEHGISVYATIPMSEWLDKRTRLRKKNLFSNQQRHRTKNIPFLAVDNPADSAVEAVRALRTSLHFAMMETENNILMITGATPDSGKTFVSSTLAAVIAQSDQKVLFIDADLRRGYSHNLFTVSNEHGLSEYLAGKDELNKVIQHFGKGGFDVITRGQVPPNPSELLMRDRMRQLLEWANDHYDLVIVDTPPMLAVSDAAVVGRSVGTSLLVARFGLNTAKEVSLSMQRLEQAGVNIKGAILNGVIKRASTAYSYGYNYYGYSYSEKE | 4.74 ± 1.7 |  |  |  |  | 1.74 ± 0.34 | 7.46 |  |  | 1.53 ± 0.24 |  | 3.3
MTTLKLDTLSDRIKAHKNALVHIVKPPVCTERAQHYTEMYQQHLDKPIPVRRALALAHHLANRTIWIKHDELIIGNQASEVRAAPIFPEYTVSWIEKEIDDLADRPGAGFAVSEENKRVLHEVCPWWRGQTVQDRCYGMFTDEQKGLLATGIIKAEGNMTSGDAHLAVNFPLLLEKGLDGLREEVAERRSRINLTVLEDLHGEQFLKAIDIVLVAVSEHIERFAALAREMAATETRESRRDELLAMAENCDLIAHQPPQTFWQALQLCYFIQLILQIESNGHSVSFGRMDQYLYPYYRRDVELNQTLDREHAIEMLHSCWLKLLEVNKIRSGSHSKASAGSPLYQNVTIGGQNLVDGQPMDAVNPLSYAILESCGRLRSTQPNLSVRYHAGMSNDFLDACVQVIRCGFGMPAFNNDEIVIPEFIKLGIEPQDAYDYAAIGCIETAVGGKWGYRCTGMSFINFARVMLAALEGGHDATSGKVFLPQEKALSAGNFNNFDEVMDAWDTQIRYYTRKSIEIEYVVDTMLEENVHDILCSALVDDCIERAKSIKQGGAKYDWVSGLQVGIANLGNSLAAVKKLVFEQGAIGQQQLAAALADDFDGLTHEQLRQRLINGAPKYGNDDDTVDTLLARAYQTYIDELKQYHNPRYGRGPVGGNYYAGTSSISANVPFGAQTMATPDGRKAHTPLAEGASPASGTDHLGPTAVIGSVGKLPTAAILGGVLLNQKLNPATLENESDKQKLMILLRTFFEVHKGWHIQYNIVSRETLLDAKKHPDQYRDLVVRVAGYSAFFTALSPDAQDDIIARTEHML | 4.17 |  |  |  |  |  |  |  |  |  |  | 
MTTMNPFLVQSTLPYLAPHFDQIANHHYRPAFDEGMQQKRAEIAAIALNPQMPDFNNTILALEQSGELLTRVTSVFFAMTAAHTNDELQRLDEQFSAELAELANDIYLNGELFARVDAVWQRRESLGLDSESIRLVEVIHQRFVLAGAKLAQADKAKLKVLNTEAATLTSQFNQRLLAANKSGGLVVNDIAQLAGMSEQEIALAAEAAREKGLDNKWLIPLLNTTQQPALAEMRDRATREKLFIAGWTRAEKNDANDTRAIIQRLVEIRAQQATLLGFPHYAAWKIADQMAKTPEAALNFMREIVPAARQRASDELASIQAVIDKQQGGFSAQPWDWAFYAEQVRREKFDLDEAQLKPYFELNTVLNEGVFWTANQLFGIKFVERFDIPVYHPDVRVWEIFDHNGVGLALFYGDFFARDSKSGGAWMGNFVEQSTLNKTHPVIYNVCNYQKPAAGEPALLLWDDVITLFHEFGHTLHGLFARQRYATLSGTNTPRDFVEFPSQINEHWATHPQVFARYARHYQSGAAMPDELQQKMRNASLFNKGYEMSELLSAALLDMRWHCLEENEAMQDVDDFELRALVAENMDLPAIPPRYRSSYFAHIFGGGYAAGYYAYLWTQMLADDGYQWFVEQGGLTRENGLRFREAILSRGNSEDLERLYRQWRGKAPKIMPMLQHRGLNI | 5.48 ± 0.74 | 4.67 ± 0.22 | 4.335 ± 0.038 | 4.65 ± 0.16 | 4.43 ± 0.24 | 3.13 ± 0.13 | 9.87 ± 0.43 | 4.53 ± 0.2 | 7.84 ± 0.66 | 6.12 ± 0.066 | 11.7 ± 0.94 | 5.67 ± 0.52
MTTNYIFVTGGVVSSLGKGIAAASLAAILEARGLNVTIMKLDPYINVDPGTMSPIQHGEVFVTEDGAETDLDLGHYERFIRTKMSRRNNFTTGRIYSDVLRKERRGDYLGATVQVIPHITNAIKERVLEGGEGHDVVLVEIGGTVGDIESLPFLEAIRQMAVEIGREHTLFMHLTLVPYMAASGEVKTKPTQHSVKELLSIGIQPDILICRSDRAVPANERAKIALFCNVPEKAVISLKDVDSIYKIPGLLKSQGLDDYICKRFSLNCPEANLSEWEQVIFEEANPVSEVTIGMVGKYIELPDAYKSVIEALKHGGLKNRVSVNIKLIDSQDVETRGVEILKGLDAILVPGGFGYRGVEGMITTARFARENNIPYLGICLGMQVALIDYARHVANMENANSTEFVPDCKYPVVALITEWRDENGNVEVRSEKSDLGGTMRLGAQQCQLVDDSLVRQLYNAPTIVERHRHRYEVNNMLLKQIEDAGLRVAGRSGDDQLVEIIEVPNHPWFVACQFHPEFTSTPRDGHPLFAGFVKAASEFQKRQAK [P0A7E5] | 6.37 ± 0.47 | 5.64 ± 0.39 | 5.16 ± 0.13 | 5.75 ± 0.15 | 5.11 ± 0.71 | 3.06 ± 0.25 | 12.3 ± 1.2 | 5.2 ± 0.22 | 9.4 ± 0.35 | 6.161 ± 0.058 | 13.1 ± 0.8 | 6.11 ± 0.39
MTTQLEQAWELAKQRFAAVGIDVEEALRQLDRLPVSMHCWQGDDVSGFENPEGSLTGGIQATGNYPGKARNASELRADLEQAMRLIPGPKRLNLHAIYLESDTPVSRDQIKPEHFKNWVEWAKANQLGLDFNPSCFSHPLSADGFTLSHADDSIRQFWIDHCKASRRVSAYFGEQLGTPSVMNIWIPDGMKDITVDRLAPRQRLLAALDEVISEKLNPAHHIDAVESKLFGIGAESYTVGSNEFYMGYATSRQTALCLDAGHFHPTEVISDKISAAMLYVPQLLLHVSRPVRWDSDHVVLLDDETQAIASEIVRHDLFDRVHIGLDFFDASINRIAAWVIGTRNMKKALLRALLEPTAELRKLEAAGDYTARLALLEEQKSLPWQAVWEMYCQRHDTPAGSEWLESVRAYEKEILSRRG | 3.97 ± 0.74 | 2.97 ± 0.12 |  | 3.14 ± 0.07 | 2.94 ± 0.21 |  | 9.47 |  | 3.73 | 5.31 ± 0.18 | 8.02 ± 5 | 5.85 ± 1.9
MTTRVIALDLDGTLLTPKKTLLPSSIEALARAREAGYQLIIVTGRHHVAIHPFYQALALDTPAICCNGTYLYDYHAKTVLEADPMPVIKALQLIEMLNEHHIHGLMYVDDAMVYEHPTGHVIRTSNWAQTLPPEQRPTFTQVASLAETAQQVNAVWKFALTHDDLPQLQHFGKHVEHELGLECEWSWHDQVDIARGGNSKGKRLTKWVEAQGWSMENVVAFGDNFNDISMLEAAGTGVAMGNADDAVKARANIVIGDNTTDSIAQFIYSHLI | 5.16 ± 0.18 | 0.903 ± 0.047 | 0.971 ± 0.12 | 1.19 ± 0.11 | 1.09 ± 0.013 | 2.05 ± 0.096 | 3.08 ± 0.64 | 1.05 ± 0.02 | 1.52 ± 0.12 | 3 ± 0.29 | 4.84 ± 0.26 | 3.48 ± 1.5
MTVKQTVEITNKLGMHARPAMKLFELMQGFDAEVLLRNDEGTEAEANSVIALLMLDSAKGRQIEVEATGPQEEEALAAVIALFNSGFDED [P0A9N0] | 4.886 ± 0.034 | 2.96 | 2.41 | 2.28 | 2.09 | 2.15 ± 0.18 | 4.27 | 2.7 | 3.97 ± 0.24 | 2.35 | 4.46 ± 0.45 | 3.27 ± 0.19
MTVQDYLLKFRKISSLESLEKLYDHLNYTLTDDQELINMYRAADHRRAELVSGGRLFDLGQVPKSVWHYVQ | 6.59 ± 0.11 |  |  | 5.67 ± 0.55 | 4.11 ± 0.46 |  |  | 3.59 | 6.7 | 2.63 | 6.54 ± 0.37 | 
